Measurements: IntAct's records for PubMed 23809763

B1: R-spondin-1 (Homo sapiens), Q2MKA7 (parent)
chain: MRLGLCVVALVLSWTHLTISSRGIKGKRQRRISAEGSQACAKGCELCSEVNGCLKCSPKLFILLERNDIRQVGVCLPSCPPGYFDARNPDMNKCIKCKIEHCEACFSHNFCTKCKEGLYLHKGRCYPACPEGSSAANGTMECSSPAQCEMSEWSPWGPCSKKQQLCGFRRGSEERTRRVLHAPVGDHAACSDTKETRRCTVRRVPCPEGQKRRKGGQGRRENANRNLARKESKEAGAGSRRRKGQQQQQQQGTVGPLTSAGPA
partner: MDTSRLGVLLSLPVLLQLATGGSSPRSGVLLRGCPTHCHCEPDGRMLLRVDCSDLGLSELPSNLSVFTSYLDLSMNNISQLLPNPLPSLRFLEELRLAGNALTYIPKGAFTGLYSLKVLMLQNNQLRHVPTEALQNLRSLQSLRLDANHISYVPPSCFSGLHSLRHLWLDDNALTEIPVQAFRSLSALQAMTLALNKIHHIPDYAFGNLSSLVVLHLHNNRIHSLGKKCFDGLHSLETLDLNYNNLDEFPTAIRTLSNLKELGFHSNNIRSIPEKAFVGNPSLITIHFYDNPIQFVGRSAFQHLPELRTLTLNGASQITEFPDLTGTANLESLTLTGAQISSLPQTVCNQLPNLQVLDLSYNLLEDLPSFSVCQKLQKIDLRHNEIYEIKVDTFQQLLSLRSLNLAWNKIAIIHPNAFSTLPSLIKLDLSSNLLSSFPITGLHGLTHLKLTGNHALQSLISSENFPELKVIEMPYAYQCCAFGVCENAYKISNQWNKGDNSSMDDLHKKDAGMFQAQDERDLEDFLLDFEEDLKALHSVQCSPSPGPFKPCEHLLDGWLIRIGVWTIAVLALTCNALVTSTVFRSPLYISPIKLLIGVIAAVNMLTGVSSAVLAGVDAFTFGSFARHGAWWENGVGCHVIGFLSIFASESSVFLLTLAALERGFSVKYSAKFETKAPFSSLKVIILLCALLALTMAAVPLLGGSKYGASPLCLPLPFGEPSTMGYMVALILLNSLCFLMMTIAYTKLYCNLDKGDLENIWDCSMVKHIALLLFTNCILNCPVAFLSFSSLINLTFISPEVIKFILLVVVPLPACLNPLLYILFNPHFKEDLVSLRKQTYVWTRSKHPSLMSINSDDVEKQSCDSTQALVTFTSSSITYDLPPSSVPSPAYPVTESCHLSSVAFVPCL

Variants of: B1
Conditions: with lgr5_human LGR5, O75473

Variant	effect of a mutation on the interaction
MRLGLCVVALVLSWTHLTISSRGIKGKRQRRISAEGSQACAKGCELCSEVNGCLKCSPKLFILLERNDIRQVEVCLPSCPPGYFDARNPDMNKCIKCKIEHCEACFSHNFCTKCKEGLYLHKGRCYPACPEGSSAANGTMECSSPAQCEMSEWSPWGPCSKKQQLCGFRRGSEERTRRVLHAPVGDHAACSDTKETRRCTVRRVPCPEGQKRRKGGQGRRENANRNLARKESKEAGAGSRRRKGQQQQQQQGTVGPLTSAGPA [G73E]	with no effect
MRLGLCVVALVLSWTHLTISSRGIKGKRQRRISAEGSQACAKGCELCSEVNGCLKCSPKLFILLERNDIRQVRVCLPSCPPGYFDARNPDMNKCIKCKIEHCEACFSHNFCTKCKEGLYLHKGRCYPACPEGSSAANGTMECSSPAQCEMSEWSPWGPCSKKQQLCGFRRGSEERTRRVLHAPVGDHAACSDTKETRRCTVRRVPCPEGQKRRKGGQGRRENANRNLARKESKEAGAGSRRRKGQQQQQQQGTVGPLTSAGPA [G73R]	with no effect
MRLGLCVVALVLSWTHLTISSRGIKGKRQRRISAEGSQACAKGCELCSEVNGCLKCSPKLFILLERNDIRRVGVCLPSCPPGYFDARNPDMNKCIKCKIEHCEACFSHNFCTKCKEGLYLHKGRCYPACPEGSSAANGTMECSSPAQCEMSEWSPWGPCSKKQQLCGFRRGSEERTRRVLHAPVGDHAACSDTKETRRCTVRRVPCPEGQKRRKGGQGRRENANRNLARKESKEAGAGSRRRKGQQQQQQQGTVGPLTSAGPA [Q71R]	with no effect
MRLGLCVVALVLSWTHLTISSRGIKGKRQRRISAEGSQACAKGCELCSEVNGCLKCSPKLFILLERNDIREVGVCLPSCPPGYFDARNPDMNKCIKCKIEHCEACFSHNFCTKCKEGLYLHKGRCYPACPEGSSAANGTMECSSPAQCEMSEWSPWGPCSKKQQLCGFRRGSEERTRRVLHAPVGDHAACSDTKETRRCTVRRVPCPEGQKRRKGGQGRRENANRNLARKESKEAGAGSRRRKGQQQQQQQGTVGPLTSAGPA [Q71E]	with no effect
MRLGLCVVALVLSWTHLTISSRGIKGKRQRRISAEGSQACAKGCELCSEVNGCLKCSPKLFILLERNDIRQVGVCLPSCPPGYFDARNPDMNKCIKCKIEHCEACFSHNECTKCKEGLYLHKGRCYPACPEGSSAANGTMECSSPAQCEMSEWSPWGPCSKKQQLCGFRRGSEERTRRVLHAPVGDHAACSDTKETRRCTVRRVPCPEGQKRRKGGQGRRENANRNLARKESKEAGAGSRRRKGQQQQQQQGTVGPLTSAGPA [F110E]	disrupting interaction strength
MRLGLCVVALVLSWTHLTISSRGIKGKRQRRISAEGSQACAKGCELCSEVNGCLKCSPKLFILLERNDICQVGVCLPSCPPGYFDARNPDMNKCIKCKIEHCEACFSHNFCTKCKEGLYLHKGRCYPACPEGSSAANGTMECSSPAQCEMSEWSPWGPCSKKQQLCGFRRGSEERTRRVLHAPVGDHAACSDTKETRRCTVRRVPCPEGQKRRKGGQGRRENANRNLARKESKEAGAGSRRRKGQQQQQQQGTVGPLTSAGPA [R70C]	with no effect
MRLGLCVVALVLSWTHLTISSRGIKGKRQRRISAEGSQACAKGCELCSEVNGCLKCSPKLFILLERNDIAQVGVCLPSCPPGYFDARNPDMNKCIKCKIEHCEACFSHNFCTKCKEGLYLHKGRCYPACPEGSSAANGTMECSSPAQCEMSEWSPWGPCSKKQQLCGFRRGSEERTRRVLHAPVGDHAACSDTKETRRCTVRRVPCPEGQKRRKGGQGRRENANRNLARKESKEAGAGSRRRKGQQQQQQQGTVGPLTSAGPA [R70A]	decreasing interaction strength
MRLGLCVVALVLSWTHLTISSRGIKGKRQRRISAEGSQACAKGCELCSEVNGCLKCSPKLFILLERNDIEQVGVCLPSCPPGYFDARNPDMNKCIKCKIEHCEACFSHNFCTKCKEGLYLHKGRCYPACPEGSSAANGTMECSSPAQCEMSEWSPWGPCSKKQQLCGFRRGSEERTRRVLHAPVGDHAACSDTKETRRCTVRRVPCPEGQKRRKGGQGRRENANRNLARKESKEAGAGSRRRKGQQQQQQQGTVGPLTSAGPA [R70E]	with no effect
MRLGLCVVALVLSWTHLTISSRGIKGKRQRRISAEGSQACAKGCELCSEVNGCLKCSPKLFILLERNDIRQVGVCLPSCPPGYFDARNPDMNKCIKCKIEHCEACESHNFCTKCKEGLYLHKGRCYPACPEGSSAANGTMECSSPAQCEMSEWSPWGPCSKKQQLCGFRRGSEERTRRVLHAPVGDHAACSDTKETRRCTVRRVPCPEGQKRRKGGQGRRENANRNLARKESKEAGAGSRRRKGQQQQQQQGTVGPLTSAGPA [F106E]	disrupting interaction strength
MRLGLCVVALVLSWTHLTISSRGIKGKRQRRISAEGSQACAKGCELCSEVNGCLKCSPKLFILLEANDIRQVGVCLPSCPPGYFDARNPDMNKCIKCKIEHCEACFSHNFCTKCKEGLYLHKGRCYPACPEGSSAANGTMECSSPAQCEMSEWSPWGPCSKKQQLCGFRRGSEERTRRVLHAPVGDHAACSDTKETRRCTVRRVPCPEGQKRRKGGQGRRENANRNLARKESKEAGAGSRRRKGQQQQQQQGTVGPLTSAGPA [R66A]	with no effect
MRLGLCVVALVLSWTHLTISSRGIKGKRQRRISAEGSQACAKGCELCSEVNGCLKCSPKLFILLEWNDIRQVGVCLPSCPPGYFDARNPDMNKCIKCKIEHCEACFSHNFCTKCKEGLYLHKGRCYPACPEGSSAANGTMECSSPAQCEMSEWSPWGPCSKKQQLCGFRRGSEERTRRVLHAPVGDHAACSDTKETRRCTVRRVPCPEGQKRRKGGQGRRENANRNLARKESKEAGAGSRRRKGQQQQQQQGTVGPLTSAGPA [R66W]	with no effect
MRLGLCVVALVLSWTHLTISSRGIKGKRQRRISAEGSQACAKGCELCSEVNGCLKCSPKLFILLERNDIRQVGVCLPSCPPEYFDARNPDMNKCIKCKIEHCEACFSHNFCTKCKEGLYLHKGRCYPACPEGSSAANGTMECSSPAQCEMSEWSPWGPCSKKQQLCGFRRGSEERTRRVLHAPVGDHAACSDTKETRRCTVRRVPCPEGQKRRKGGQGRRENANRNLARKESKEAGAGSRRRKGQQQQQQQGTVGPLTSAGPA [G82E]	with no effect
